Data on two proteins can be found in US20100075385A1 (DONALD DANFORTH PLANT SCIENCE CENTER, published 2010).

This data set concerns the molecule itself. Put plainly: gel filtration on a calibrated Sephacryl 200 column; self-association of the subunit (43 kDa by SDS-PAGE) into a homodimer. The text has this:
Purification and Functional Characterization of Recombinant Enzymes—The PSOMT1 and PSOMT2 cDNAs were each constructed to express the recombinant proteins with six histidine residues elongating the amino terminus. The proteins were then purified from S. frugiperda Sf9 cell culture medium in one step by cobalt affinity chromatography to yield electrophoretically homogeneous proteins. PSOMT1 and PSOMT2 each have relative molecular masses of 43 kDa as determined by SDS-PAGE. This compares with the calculated molecular masses of 39,841 and 38,510 based on the translation of the nucleotide sequences. The native relative molecular masses were determined by gel filtration on a calibrated Sephacryl 200 column (Pharmacia). PSOMT1 and PSOMT2 are each homodimers with an Mr of 85 and 80 kDa, respectively. This is consistent with that observed for norcoclaurine 6-O-methyltransferases of (S)-reticuline biosynthesis in T. tuberosum (4).
(In gel filtration, larger molecules generally elute earlier.)

B1: Papaver somniferum (R,S)-norcoclaurine 6-O-methyltransferase (PSOMT2), recombinant, His-tagged subunit (enzyme)
chain: METVSKIDQQNQAKIWKQIYGFAESLVLKCAVQLEIAETLHNNVKPMSLSELASKLPVAQPVNEDRLFRIMRYLVHMELFKIDATTQKYSLAPPAKYLLRGWEKSMVDSILCINDKDFLAPWHHLGDGLTGNCDAFEKALGKSIWVYMSVNPEKNQLFNAAMACDTRLVTSALANECKSIFSDGISTLVDVGGGTGTAVKAISKAFPDIKCTIYDLPHVIADSPEIPNITKISGDMFKSIPSADAIFMKCILHDWNDDECIQILKRCKEALPKGGKVIIVDVVIDMDSTHPYAKIRLTLDLDMMLNTGGKERTKEEWKTLFDAAGFASHKVTQISAVQSVIEAYPY
notes: Full-length open reading frame expressed in Sf9 cells with an N-terminal His tag and purified on cobalt resin; GenBank AY268894 is printed for it; also called Pso6OMT; Ps6OMT; not shown: six histidine residues elongating the amino terminus (pFastBac HTa vector)
For B1, the binding result was “binds”.

B2: Papaver somniferum (R,S)-reticuline 7-O-methyltransferase (PSOMT1), recombinant, His-tagged subunit (enzyme)
chain: MDTAEERLKGQAEIWEHMFAFVDSMALKCAVELGIPDIINSHGRPVTISEIVDSLKTNTPSSSPNIDYLTRIMRLLVHKRLFTSELHQESNQLLYNLTRSSKWLLKDSKFNLSPLVLWETNPILLKPWQYLGKCAQEKSSPFERAHGCEIWDLALADPKFNNFLNGAMQCSTTTIINEMLLEYKDGFSGIAGSLVDVGGGTGSIIAEIVKAHPHIQGINFDLPHVVATAAEFPGVKHVGGDMFVDIPEADAVIMKWILHDWSDEDCTIILKNCYRAIRKKKNGKVIIVDCVLRPDGNDLFDKMGLIFDVLMMAHTTAGKERTEAEWKILLNNAGFPRYNVIRTPAFPCIIEAFPE
notes: Full-length open reading frame expressed in Sf9 cells with an N-terminal His tag and purified on cobalt resin; GenBank AY268893 is printed for it; also called Pso7OMT; Ps7OMT; not shown: six histidine residues elongating the amino terminus (pFastBac HTa vector)
Turning to B2, the binding result is “binds”.
